Source: patent US20120184020A1, “ENGINEERED MICROORGANISMS WITH ENHANCED FERMENTATION ACTIVITY” (Verdezyne, Inc., priority 2009, published 2012)

B1: Bacillus licheniformis: xylose isomerase from donor organism Bacillus licheniformis (protein, UniProt P77832 1-448, looked up)
Xylose isomerase: MFFRNIGMIEYEGADSENPYAFKYYNPDEFVGGKTMKEHLRFAVAYWHTFDADGKDPFGDGTMFRAWNRLTHPLDKAKARAEAAFEFFEKLGVPYFCFHDVDIVDEGATLRETFTYLDQMSSFLKEMMETSHVQLLWNTANMFTHPRYVHGAATSCNADVYAYAAAKVKKGLDIAKELGAENYVFWGGREGYETLLNTDMKLELENLSSFYRMAVEYAREIGFDGQFLIEPKPKEPTKHQYDFDAATTIAFLETYGLKDHFKLNLEANHATLAGHTFEHELRVAALHDMLGSIDANQGDLLLGWDTDEFPTDLYSAVLAMYEILKAGGFKTGGINFDAKVRRPSFADEDLFHAHIAGMDTYAVGLKVASRLLEDKALDQVIEERYESYTKGIGLEIKEGRTDLKKLAAYALENDHIENQSGRQERLKATVNRYLLNALREAPAGKETH
B2: Escherichia coli: xylose isomerase from donor organism Escherichia coli (protein, listed as Escherichia coli)
chain: MQAYFDQLDRVRYEGSKSSNPLAFRHYNPDELVLGKRMEEHLRFAACYWHTFCWNGADMFGVGAFNRPWQQPGEALALAKRKADVAFEFFHKLHVPFYCFHDVDVSPEGASLKEYINNFAQMVDVLAGKQEESGVKLLWGTANCFTNPRYGA
B3: Clostridium thermosulfurogenes: xylose isomerase from donor organism Clostridium thermosulfurogenes (protein, UniProt P19148 1-439, looked up)
Xylose isomerase: MNKYFENVSKIKYEGPKSNNPYSFKFYNPEEVIDGKTMEEHLRFSIAYWHTFTADGTDQFGKATMQRPWNHYTDPMDIAKARVEAAFEFFDKINAPYFCFHDRDIAPEGDTLRETNKNLDTIVAMIKDYLKTSKTKVLWGTANLFSNPRFVHGASTSCNADVFAYSAAQVKKALEITKELGGENYVFWGGREGYETLLNTDMEFELDNFARFLHMAVDYAKEIGFEGQFLIEPKPKEPTKHQYDFDVANVLAFLRKYDLDKYFKVNIEANHATLAFHDFQHELRYARINGVLGSIDANTGDMLLGWDTDQFPTDIRMTTLAMYEVIKMGGFDKGGLNFDAKVRRASFEPEDLFLGHIAGMDAFAKGFKVAYKLVKDRVFDKFIEERYASYKDGIGADIVSGKADFRSLEKYALERSQIVNKSGRQELLESILNQYLFAE
B4: Clostridium phytofermentans: xylose isomerase from donor organism Clostridium phytofermentans (protein)
chain: MKNYFPNVPEVKYEGPNSTNPFAFKYYDANKVVAGKTMKEHCRFALSWWHTLCAGGADPFGVTTMDRTYGNITDPMELAKAKVDAGFELMTKLGIEFFCFHDADIAPEGDTFEESKKNLFEIVDYIKEKMDQTGIKLLWGTANNFSHPRFMH
modifications: Clostridium phytofermentans
B5: Arabidopsis thaliana: xylose isomerase from donor organism Arabidopsis thaliana (protein, UniProt Q9FKK7 1-477, looked up)
Xylose isomerase: MKKVEFFMLLLCFIAASSLVSADPPTCPADLGGKCSDSDDWQGDFFPEIPKIKYEGPSSKNPLAYRWYNAEEEILGKKMKDWFRFSVAFWHTFRGTGGDPFGAATKYWPWEDGTNSVSMAKRRMRANFEFLKKLGVDWWCFHDRDIAPDGTTLEESNKNLDEVIELAKELQKGSKIKPLWGTAQLFLHPRYMHGGATSSEVGVYAYAAAQVKKAMEVTHYLGGENYVFWGGREGYQTLLNTDMGRELDHLARFFEAAVAYKKKIGFKGTLLIEPKPQEPTKHQYDWDAATAANFLRKYGLIDEFKLNIECNHATLSGHTCHHELETARINGLLGNIDANTGDAQTGWDTDQFLTDVGEATMVMMSVIKNGGIAPGGFNFDAKLRRESTDVEDLFIAHISGMDTMARGLRNAVKILEEGSLSELVRKRYATWDSELGKQIEEGKADFEYLEKKAKEFGEPKVSSAKQELAEMIFQSAM
B6: Bacillus subtilis: xylose isomerase from donor organism Bacillus subtilis (protein, UniProt P0CI80 1-445, looked up)
Xylose isomerase: MAQSHSSSINYFGSANKVVYEGKDSTNPLAFKYYNPQEVIGGKTLKEHLRFSIAYWHTFTADGTDVFGAATMQRPWDHYKGMDLAKMRVEAAFEMFEKLDAPFFAFHDRDIAPEGSTLKETNQNLDMIMGMIKDYMRNSGVKLLWNTANMFTNPRFVHGAATSCNADVFAYAAAQVKKGLETAKELGAENYVFWGGREGYETLLNTDLKFELDNLARFMHMAVDYAKEIGYTGQFLIEPKPKEPTTHQYDTDAATTIAFLKQYGLDNHFKLNLEANHATLAGHTFEHELRMARVHGLLGSVDANQGHPLLGWDTDEFPTDLYSTTLAMYEILQNGGLGSGGLNFDAKVRRSSFEPDDLIYAHIAGMDAFARGLKVAHKLIEDRVFEDVIQHRYRSFTEGIGLEIIEGRANFHTLEQYALNHKSIKNESGRQEKLKAILNQYILEV
B7: Staphylococcus xylosus: xylose isomerase from donor organism Staphylococcus xylosus (protein, UniProt P27157 1-439, looked up)
Xylose isomerase: MSYFDINKVNYEGPKSNNAFSFKYYNPEEKLGNHSMSELLRFSVAYWHTFTADLSDPFGVGVAERDWDSLDEMEKAKARVEAIFEFMEKTRIDYFCFHDVDISPEGASLKESNENLDIIVELIKEKMDQTGKKLLWNTTNNFTHERFVHGAATSSNAEVFAYAAAKVKKSLEIAKKLGSENFVFWGGREGYESLLNTNMKLELDNLATFFKMAKSYADEIGYTGQFLIEPKPKEPTTHQYDTDVATAHAFLQKYDLDKDFKFNIEANHATLAGHTFQHELRYARDNNMLGSVDANQGHPLLGWDTDESTDVYDTTLAMYEILKNGGLAPGGLNFDAKPRRTSFKQEDLILTHIAGMDTFALGLRVAYKMIEDNFFENIMDEKYKSFNEGIGKKIVEGETSLKELEDYAFNINTINNTSDHLEVIKSQINQYILNINNKD
B8: Psudomonas savastanoi: xylose isomerase from donor organism Psudomonas savastanoi (protein, UniProt Q48J73 1-438, looked up)
Xylose isomerase: MPYFPAVDKVRYEGPDSDSPLAFRHYDADKLILGKPMREHLRMAACYWHTFVWPGADMFGVGTFKRPWQGSGDPLELAIGKAETAFEFFSKLGIDYYSFHDTDVAPEGSSLKEYRNNFAQMIDQLERHQEQTGIKLLWGTANCFSNPRFAAGAASNPDPEVFAYAATQVFSAMNATQRLKGANYVLWGGREGYETLLNTDLRQEREQLGRFMRMVVEHKHKIGFKGDLLIEPKPQEPTKHQYDYDSATVFGFLQQYGLEKEIKVNIEANHATLAGHSFHHEIATAVSLGIFGSIDANRGDPQNGWDTDQFPNSVEEMTLATYEILKAGGFTNGGYNFDSKVRRQSLDEVDLFHGHVAAMDVLALALERAAAMVQNDKLQQFKDQRYAGWQQPFGKSLLAGEFSLESLAKHAFDKDLNPQAVSGRQELLEGVVNRFIYF
B9: R. flavefaciens, FD-1 XI: xylose isomerase of Ruminococcus flavefaciens FD1, ZP_06143883.1, SEQ ID NO: 110 (protein, listed as Ruminococcus flavefaciens)
chain: MEFFKNISKIPYEGKDSTNPLAFKYYNPDEVIDGKKMRDIMKFALSWWHTMGGDGTDMFGCGTADKTWGENDPAARAKAKVDAAFEIMQKLSIDYFCFHDRDLSPEYGSLKDTNAQLDIVTDYIKAKQAETGLKCLWGTAKCFDHPRFMHGAGTSPSADVFAFSAAQIKKALESTVKLGGTGYVFWGGREGYETLLNTNMGLELDNMARLMKMAVEYGRSIGFKGDFYIEPKPKEPTKHQYDFDTATVLGFLRKYGLDKDFKMNIEANHATLAQHTFQHELCVARTNGAFGSIDANQGDPLLGWDTDQFPTNIYDTTMCMYEVIKAGGFTNGGLNFDAKARRGSFTPEDIFYSYIAGMDAFALGYKAASKLIADGRIDSFISDRYASWSEGIGLDIISGKADMAALEKYALEKGEVTDSISSGRQELLESIVNNVIFNL

Test system: engineered yeast (S. cerevisiae)
Assay: Heterologous xylose isomerase expression in yeast (active yes/no)
Assay type: cell-based
Conditions: xylose isomerase of donor organism expressed in engineered yeast (S. cerevisiae)

Molecule | Active? (yes/no)
Bacteroides thetaiotaomicron: xylose isomerase from donor organism Bacteroides thetaiotaomicron | Yes
Thermus thermophilus: xylose isomerase from donor organism Thermus thermophilus | Yes
Streptomyces diastaticus subsp diastaticus: xylose isomerase from donor organism Streptomyces diastaticus subsp diastaticus | No
Streptomyces rubiginosus: xylose isomerase from donor organism Streptomyces rubiginosus | No
Actinoplanes missouriensis: xylose isomerase from donor organism Actinoplanes missouriensis | No
B1 | No
B2 | No
B3 | No
B4 | Yes
B5 | No
B6 | No
B7 | No
B8 | No

Test system: not listed separately
Assay: Xylose isomerase activity/kinetic assay on soluble whole cell extract (sorbitol dehydrogenase coupled, NADH, A340)
Assay type: biochemical
Conditions: 500 mM xylose, 100 μg total soluble crude extract, expressed in S. cerevisiae
Experimental: […] Louis, Mo.), and about 2 U sorbitol dehydrogenase (Roche) at about 30° C. […] A Beckman DU-800 was utilized with an Enzyme Mechanism software package (Beckman Coulter, Inc.), and the change in the A340 was monitored for 2-3 minutes.
[…] Louis, Mo.), and 2 U Sorbitol Dehydrogenase (SDH) (Roche, Indianapolis, Ind.) at about 30° C. […] A Beckman DU-800 spectrophotometer was utilized with an Enzyme Mechanism software package (Beckman Coulter, Inc, Brea, Calif.), and the change in the A340 was monitored for 2-3 minutes.
[…] Louis, Mo.), and 2 U sorbitol dehydrogenase (SDH) (Roche, Indianapolis, Ind.) at about 30° C. […] A Beckman DU-800 spectrophotometer was utilized with an Enzyme Mechanism software package (Beckman Coulter, Inc, Brea, Calif.), and the change in the A340 was monitored for 2-3 minutes.
Approximately 20 μg of soluble whole cell extract from each transformed cell line was prepared using Y-PER plus reagent as described above was incubated in a solution containing about 100 mM Tris, pH 7.5, 10 mM MgCl ? 2, 0.15 mM NADH (Sigma, St. Louis, Mo.), and 2 U Sorbitol Dehydrogenase (SDH) (Roche, Indianapolis, Ind.) at about 30° C. […] A Beckman DU-800 spectrophotometer was utilized with an Enzyme Mechanism software package (Beckman Coulter, Inc, Brea, Calif.), and the change in the A340 was monitored for 2-3 minutes.

Molecule | activity (slope) at saturating xylose (FIG. 25)
B9 | highest activity of the candidates tested

Same assay, conditions: xylose concentrations between 40 and 500 nM (so in the source)

Molecule | specific activity relative to native XI control activity
B9 | greater than 2 fold
